From article PMC4416878 come the findings set out here.

The target of assay [1] is Golgi anti-apoptotic protein (GAAP) from vaccinia virus strain Evans, purified (vaccinia virus (VACV) strain Evans). Put plainly: SEC.
Assay [2] concerns the target Golgi anti-apoptotic protein (GAAP) from camelpox virus, wild type, purified (camelpox virus (CMLV)). As to the kind of experiment: SEC.

On to “Golgi anti-apoptotic protein (GAAP) from vaccinia virus strain Evans, purified (natural protein)”, for which the percent of total protein in oligomeric states (% of total protein) in assay [1] amounted to 64. In the case of “Golgi anti-apoptotic protein (GAAP) from camelpox virus, wild type, purified (natural protein)”, in assay [2], the percent of protein oligomeric worked out at 84% and the percent of total protein in oligomeric states (% of total protein) amounted to 87.
